According to US20250276075A1, “METHODS OF TREATING AXL-EXPRESSING CANCERS WITH ANTI-AXL ANTIBODIES, ANTIBODY FRAGMENTS AND THEIR IMMUNOCONJUGATES” (BIOATLA, INC., priority 2020, published 2025):

T1: Axl (Homo sapiens, UniProt P30530)
T1 sequence (P30530 26-451 limits assumed): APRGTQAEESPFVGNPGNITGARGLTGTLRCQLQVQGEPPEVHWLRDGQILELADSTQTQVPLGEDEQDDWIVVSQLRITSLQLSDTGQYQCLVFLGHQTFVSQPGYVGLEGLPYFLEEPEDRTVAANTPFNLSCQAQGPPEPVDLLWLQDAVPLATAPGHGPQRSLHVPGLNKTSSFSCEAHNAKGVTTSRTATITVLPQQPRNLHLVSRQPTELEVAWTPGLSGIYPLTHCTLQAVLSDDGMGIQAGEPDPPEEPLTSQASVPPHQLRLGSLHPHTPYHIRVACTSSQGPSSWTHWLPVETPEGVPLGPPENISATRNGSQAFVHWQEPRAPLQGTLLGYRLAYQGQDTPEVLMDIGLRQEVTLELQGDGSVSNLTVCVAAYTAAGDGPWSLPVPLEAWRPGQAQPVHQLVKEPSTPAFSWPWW


Columns and labels:
Axl [1] = target: Axl (UniProt P30530); assay: ELISA, 1:3 dilution
Axl [2] = target: Axl (UniProt P30530); assay: ELISA, 1:9 dilution
Axl [3] = target: T1, Axl; assay: Affinity ELISA of CPE mutant antibodies for binding to Axl at pH 6.0 over pH 7.4; settings: heavy chain variable region mutants; for Affinity ELISA CPE mutant ratio (1:3, pH 6.0/7.4): 1:3 dilution; for Affinity ELISA CPE mutant ratio (1:9, pH 6.0/7.4): 1:9 dilution
How it was run: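 Single-point mutant anti-Axl antibody library (CPE) screened by ELISA for binding at pH 6.0 versus pH 7.4, at 1:3 and 1:9 antibody dilutions, in serum with FLAG-tag detection and carbonate (Krebs-Ringer) buffer. Selection criterion: pH 6.0/pH 7.4 binding ratio ≥1.5 at either dilution.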

A549 cells = assay: Conditional cell killing by CAB-Axl-ADC (model toxin) at pH 6.0 and 7.4; assay type: cell-based; settings: FIG. 11
Description: The anti-Axl antibody of the present invention was conjugated to a model toxin (e.g., gemcitabine) to produce a conditionally active antibody-drug conjugate (CAB-Axl-ADC). The CAB-Axl-ADC was first tested to confirm that the conditional cell killing activity was not altered by the drug conjugation process.

[4] = test system: MiaPaCa2 xenograft tumors; assay: MiaPaCa2 xenograft tumor study in mice; assay type: in vivo; settings: 1 mg/kg twice weekly for 3 weeks; in comparison with the controls
Description: The CAB-Axl-ADC was then injected into mice bearing MiaPaCa2 xenograft tumors at a dose of 1 mg/kg twice weekly for 3 weeks. Several controls were used in this study, including naked CAB (anti-Axl antibody with no conjugation), vehicle, the toxin alone (unconjugated gemcitable), control ADC, an affinity matching anti-Axl ADC (AM ADC).

Molecule | Affinity ELISA CPE mutant ratio (1:3, pH 6.0/7.4) (Axl [1]) | Affinity ELISA CPE mutant ratio (1:9, pH 6.0/7.4) (Axl [2]) | Affinity ELISA CPE mutant ratio (1:3, pH 6.0/7.4) (Axl [3]) | Affinity ELISA CPE mutant ratio (1:9, pH 6.0/7.4) (Axl [3]) | cell killing at pH 6.0 versus pH 7.4 (A549 cells) | reduction in the size of the tumor [4]
HC-W110N (antibody, V domains shown) VH: EVQLVQSGAEVKKPGATVKISCKVSGYSFTGHTMNWIRQPPGKGLEWIGLIKPSNGGTSYNQKFKGRVTISADKSISTAYLQWSSLKASDTAMYYCAHGHYESYFAMDYNGQGTLVTVSS VL: DIQMTQSPSSLSASVGDRVTITCKASQDVSSAVAWYQQKPGQAPRLLIYWASTRHTGVPSRFSGSGSGTEFTLTISSLQPDDFATYYCQEHFSTPLTFGQGTKVEIK | 4.3 | 0.8 | 4.304 | 0.800 | – | –
HC-A106L (antibody, V domains shown) VH: EVQLVQSGAEVKKPGATVKISCKVSGYSFTGHTMNWIRQPPGKGLEWIGLIKPSNGGTSYNQKFKGRVTISADKSISTAYLQWSSLKASDTAMYYCAHGHYESYFLMDYWGQGTLVTVSS VL: DIQMTQSPSSLSASVGDRVTITCKASQDVSSAVAWYQQKPGQAPRLLIYWASTRHTGVPSRFSGSGSGTEFTLTISSLQPDDFATYYCQEHFSTPLTFGQGTKVEIK | 21.5 | 1.61 | 21.538 | 1.613 | – | –
HC-W110L (antibody, V domains shown) VH: EVQLVQSGAEVKKPGATVKISCKVSGYSFTGHTMNWIRQPPGKGLEWIGLIKPSNGGTSYNQKFKGRVTISADKSISTAYLQWSSLKASDTAMYYCAHGHYESYFAMDYLGQGTLVTVSS VL: DIQMTQSPSSLSASVGDRVTITCKASQDVSSAVAWYQQKPGQAPRLLIYWASTRHTGVPSRFSGSGSGTEFTLTISSLQPDDFATYYCQEHFSTPLTFGQGTKVEIK | 8.22 | 0.924 | 8.220 | 0.924 | – | –
HC-G111H (antibody, V domains shown) VH: EVQLVQSGAEVKKPGATVKISCKVSGYSFTGHTMNWIRQPPGKGLEWIGLIKPSNGGTSYNQKFKGRVTISADKSISTAYLQWSSLKASDTAMYYCAHGHYESYFAMDYWHQGTLVTVSS VL: DIQMTQSPSSLSASVGDRVTITCKASQDVSSAVAWYQQKPGQAPRLLIYWASTRHTGVPSRFSGSGSGTEFTLTISSLQPDDFATYYCQEHFSTPLTFGQGTKVEIK | 1.06 | 1.79 | 1.058 | 1.786 | – | –
HC-W110D (antibody, V domains shown) VH: EVQLVQSGAEVKKPGATVKISCKVSGYSFTGHTMNWIRQPPGKGLEWIGLIKPSNGGTSYNQKFKGRVTISADKSISTAYLQWSSLKASDTAMYYCAHGHYESYFAMDYDGQGTLVTVSS VL: DIQMTQSPSSLSASVGDRVTITCKASQDVSSAVAWYQQKPGQAPRLLIYWASTRHTGVPSRFSGSGSGTEFTLTISSLQPDDFATYYCQEHFSTPLTFGQGTKVEIK | 3.72 | 1.11 | 3.716 | 1.112 | – | –
HC-W110P (antibody, V domains shown) VH: EVQLVQSGAEVKKPGATVKISCKVSGYSFTGHTMNWIRQPPGKGLEWIGLIKPSNGGTSYNQKFKGRVTISADKSISTAYLQWSSLKASDTAMYYCAHGHYESYFAMDYPGQGTLVTVSS VL: DIQMTQSPSSLSASVGDRVTITCKASQDVSSAVAWYQQKPGQAPRLLIYWASTRHTGVPSRFSGSGSGTEFTLTISSLQPDDFATYYCQEHFSTPLTFGQGTKVEIK | 6.49 | 2.15 | 6.490 | 2.148 | – | –
HC-A106Y (antibody, V domains shown) VH: EVQLVQSGAEVKKPGATVKISCKVSGYSFTGHTMNWIRQPPGKGLEWIGLIKPSNGGTSYNQKFKGRVTISADKSISTAYLQWSSLKASDTAMYYCAHGHYESYFYMDYWGQGTLVTVSS VL: DIQMTQSPSSLSASVGDRVTITCKASQDVSSAVAWYQQKPGQAPRLLIYWASTRHTGVPSRFSGSGSGTEFTLTISSLQPDDFATYYCQEHFSTPLTFGQGTKVEIK | 3.29 | 3.06 | 3.293 | 3.060 | – | –
HC-W110A (antibody, V domains shown) VH: EVQLVQSGAEVKKPGATVKISCKVSGYSFTGHTMNWIRQPPGKGLEWIGLIKPSNGGTSYNQKFKGRVTISADKSISTAYLQWSSLKASDTAMYYCAHGHYESYFAMDYAGQGTLVTVSS VL: DIQMTQSPSSLSASVGDRVTITCKASQDVSSAVAWYQQKPGQAPRLLIYWASTRHTGVPSRFSGSGSGTEFTLTISSLQPDDFATYYCQEHFSTPLTFGQGTKVEIK | 7.91 | 1.2 | 7.909 | 1.198 | – | –
HC-W110R (antibody, V domains shown) VH: EVQLVQSGAEVKKPGATVKISCKVSGYSFTGHTMNWIRQPPGKGLEWIGLIKPSNGGTSYNQKFKGRVTISADKSISTAYLQWSSLKASDTAMYYCAHGHYESYFAMDYRGQGTLVTVSS VL: DIQMTQSPSSLSASVGDRVTITCKASQDVSSAVAWYQQKPGQAPRLLIYWASTRHTGVPSRFSGSGSGTEFTLTISSLQPDDFATYYCQEHFSTPLTFGQGTKVEIK | 5.99 | 1.06 | 5.991 | 1.062 | – | –
HC-M107E (antibody, V domains shown) VH: EVQLVQSGAEVKKPGATVKISCKVSGYSFTGHTMNWIRQPPGKGLEWIGLIKPSNGGTSYNQKFKGRVTISADKSISTAYLQWSSLKASDTAMYYCAHGHYESYFAEDYWGQGTLVTVSS VL: DIQMTQSPSSLSASVGDRVTITCKASQDVSSAVAWYQQKPGQAPRLLIYWASTRHTGVPSRFSGSGSGTEFTLTISSLQPDDFATYYCQEHFSTPLTFGQGTKVEIK | 2.16 | 1.36 | 2.164 | 1.357 | – | –
HC-M107F (antibody, V domains shown) VH: EVQLVQSGAEVKKPGATVKISCKVSGYSFTGHTMNWIRQPPGKGLEWIGLIKPSNGGTSYNQKFKGRVTISADKSISTAYLQWSSLKASDTAMYYCAHGHYESYFAFDYWGQGTLVTVSS VL: DIQMTQSPSSLSASVGDRVTITCKASQDVSSAVAWYQQKPGQAPRLLIYWASTRHTGVPSRFSGSGSGTEFTLTISSLQPDDFATYYCQEHFSTPLTFGQGTKVEIK | 20.6 | 1.09 | 20.579 | 1.090 | – | –
CAB-Axl-ADC: anti-Axl antibody conjugated to a model toxin (e.g., gemcitabine), conditionally active antibody-drug conjugate (conjugate) VH: EVQLVQSGAEVKKPGATVKISCKVSGYSFWGATMNWIRQPPGKGLEWIGLIKPSNGGTSYNQKFKGRVTISADKSISTAYLQWSSLKASDTAMYYCAHGHYESYEAMDYWGQGTLVTVSS VL: DIQMTQSPSSLSASVGDRVTITCKASQDVVSAVAWYQQKPGQAPRLLIYWQDTRHTGVPSRFSGSGSGTEFTLTISSLQPDDFATYYCQEHFSPPLTFGQGTKVEIK | – | – | – | – | killed significantly more cells at pH 6.0 than at pH 7.4 | significantly greater reduction in the size of the tumor
